Experimental data published in article PMC8809517, “Cofactor-independent RNA editing by a synthetic S-type PPR protein”.
Changes are numbered by the printed parent chain.

T1: GFP-9S library array, motif 4 ND N98S;D124T (synthetic construct, N98S;D124T)
T1 chain: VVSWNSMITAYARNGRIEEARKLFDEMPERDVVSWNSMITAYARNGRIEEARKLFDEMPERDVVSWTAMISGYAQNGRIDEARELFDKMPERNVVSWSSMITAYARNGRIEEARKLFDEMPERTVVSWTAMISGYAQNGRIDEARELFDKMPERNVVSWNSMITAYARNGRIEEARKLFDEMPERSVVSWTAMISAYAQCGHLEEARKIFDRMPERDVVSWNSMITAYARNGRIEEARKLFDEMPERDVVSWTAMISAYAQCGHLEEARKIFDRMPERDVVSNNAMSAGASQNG

T2: GFP-9S library array, motif 4 ND N98Q;D124K (synthetic construct, N98Q;D124K)
T2 chain: T1 chain with S98Q, T124K

T3: GFP-9S library array, motif 4 ND N98Q;D124P (synthetic construct, N98Q;D124P)
T3 chain: T1 chain with S98Q, T124P

T4: GFP-9S library array, motif 4 ND N98F;D124M (synthetic construct, N98F;D124M)
T4 chain: T1 chain with S98F, T124M

T5: GFP-9S library array, motif 4 ND N98E;D124L (synthetic construct, N98E;D124L)
T5 chain: T1 chain with S98E, T124L


Legend:
Test in all cases: high-throughput RNA pulldown from lysate on Ni-NTA beads; HRP: 50 mM Tris pH 8, 150 mM NaCl, 1 mM beta-mercaptoethanol, 50 ug/ml BSA, 3 ug/ml yeast RNA, 0.5% heparin; ITC and FP: Tris pH 8, 200 mM KCl, 5% glycerol; MST: 50 mM Tris pH 8, 200 mM NaCl, 1 mM DTT, BSA, heparin, 0.05% Tween 20
Conditions in all cases: tags: N-terminal His-eGFP
[1] = target: T1, GFP-9S library array, motif 4 ND …
[2] = target: T2, GFP-9S library array, motif 4 ND …
[3] = target: T3, GFP-9S library array, motif 4 ND …
[4] = target: T4, GFP-9S library array, motif 4 ND …
[5] = target: T5, GFP-9S library array, motif 4 ND …

| Binder | Kd ([1]; label: 5' IRDye 800CW) | Kd ([2]; label: 5' IRDye 800CW) | Kd ([3]; label: 5' IRDye 800CW) | Kd ([4]; label: 5' IRDye 800CW) | Kd ([5]; label: 5' IRDye 800CW) | Kd ([1]; label: 5' Cy5) | Kd ([2]; label: 5' Cy5) | Kd ([3]; label: 5' Cy5) | Kd ([4]; label: 5' Cy5) | Kd ([5]; label: 5' Cy5) |
| --- | --- | --- | --- | --- | --- | --- | --- | --- | --- | --- |
| AUUAUACGUGA (ssRNA) [IR-rpoA-U] | 108 nM | 159 nM | 219 nM | 194 nM | 196 nM | – | – | – | – | – |
| AUUACACGUGA (ssRNA) [Cy5-rpoA] | – | – | – | – | – | 187 nM | 91.3 nM | 135 nM | 76.7 nM | 63.1 nM |
| AUUAGACGUGA (ssRNA) [Cy5-rpoA-G] | – | – | – | – | – | 291 nM | 109 nM | 138 nM | 69.1 nM | 69 nM |
| AUUAAACGUGA (ssRNA) [IR-rpoA-A] | 72.3 nM | 257 nM | 259 nM | 230 nM | 147 nM | – | – | – | – | – |
